Reference: patent publication US20140112915A1 (Novartis, published 2014)
Substitutions are numbered along the chain they refer to.

B1: MOR9464_N30T (antibody, human IgG1, lambda, L234A L235A, V domains shown)
VH: EVQLVQSGAEVKKPGSSVKVSCKASGGTFTSYAISWVRQAPGQGLEWMGNIIPMTGQTYYAQKFQGRVTITADESTSTAYMELSSLRSEDTAVYYCARAAYHPLVFDNWGQGTLVTVSS
VL: DIVLTQPPSVSGAPGQRVTISCSGSSSNIGNHYVNWYQQLPGTAPKLLIYRNNHRPSGVPDRFSGSKSGTSASLAITGLQSEDEADYYCQSWDYSGFSTVFGGGTKLTVLG
B2: MOR9464_N30V (antibody, human IgG1, lambda, L234A L235A, V domains shown)
VH: B1 VH with T30V
VL: B1 VL
B3: MOR9464_N30H (antibody, human IgG1, lambda, L234A L235A, V domains shown)
VH: B1 VH with T30H
VL: B1 VL
B4: MOR9464_N30R (antibody, human IgG1, lambda, L234A L235A, V domains shown)
VH: B1 VH with T30R
VL: B1 VL
B5: MOR9464_N30E (antibody, human IgG1, lambda, L234A L235A, V domains shown)
VH: B1 VH with T30E
VL: B1 VL
B6: MOR10222_E1Q_N30S_M54Y (antibody, human IgG1, lambda, L234A L235A, V domains shown)
VH: B1 VH with E1Q, T30S, M54Y
VL: B1 VL with D1Q, I2S, V10A, A13T, T77S
B7: MOR10222_E1Q_N30S (antibody, human IgG1, lambda, L234A L235A, V domains shown)
VH: B1 VH with E1Q, T30S
VL: B1 VL with D1Q, I2S, V10A, A13T, T77S
B8: MOR9464_N30Y (antibody, human IgG1, lambda, L234A L235A, V domains shown)
VH: B1 VH with T30Y
VL: B1 VL
B9: MOR9464_N30Q (antibody, human IgG1, lambda, L234A L235A, V domains shown)
VH: B1 VH with T30Q
VL: B1 VL
B10: MOR9464_N30L (antibody, human IgG1, lambda, L234A L235A, V domains shown)
VH: B1 VH with T30L
VL: B1 VL
B11: MOR9464_N30I (antibody, human IgG1, lambda, L234A L235A, V domains shown)
VH: B1 VH with T30I
VL: B1 VL
B12: MOR9464_N30G (antibody, human IgG1, lambda, L234A L235A, V domains shown)
VH: B1 VH with T30G
VL: B1 VL
B13: MOR10222_E1Q_N30S_M54N (antibody, human IgG1, lambda, L234A L235A, V domains shown)
VH: B1 VH with E1Q, T30S, M54N
VL: B1 VL with D1Q, I2S, V10A, A13T, T77S
B14: Recombinant human IL-18 Binding Protein-IgG1 Fc (Fc fusion, UniProt O95998 31-194, looked up, not shown: a dimerising Fc or GST)
chain: TPVSQTTTAATASVRSTKDPCPSQPPVFPAAKQCPALEVTWPEVEVPLNGTLSLSCVACSRFPNFSILYWLGNGSFIEHLPGRLWEGSTSRERGSTGTQLCKALVLEQLTPALHSTNFSCVLVDPEQVVQRHVVLAQLWAGLRATLPPTQEALPSSHSSPQQQG
B15: MOR13342 (antibody, human IgG1, kappa, L234A L235A, V domains shown)
VH: QVQLVQSGAEVKKPGSSVKVSCKASGGTFSTFSISWVRQAPGQGLEWMGGIIPIFGTANYAQKFQGRVTITADESTSTAYMELSSLRSEDTAVYYCARGGYGGYYYFDYWGQGTLVTVSS
VL: DIQMTQSPSSLSASVGDRVTITCRASQSISNRLNWYQQKPGKAPKLLIYKGSTLQSGVPSRFSGSGSGTDFTLTISSLQPEDFATYYCQQHYVWSTTFGQGTKVEIKR
B16: MOR13347 (antibody, human IgG1, kappa, L234A L235A, V domains shown)
VH: B15 VH
VL: B15 VL with V93Q, S95L
B17: MOR10579 (antibody, human IgG1, lambda, L234A L235A, V domains shown)
VH: EVQLVQSGAEVKKPGSSVKVSCKASGGTFNSYAISWVRQAPGQGLEWMGWINPFYIGETFYAQKFQGRVTITADESTSTAYMELSSLRSEDTAVYYCARAAYHPLVFDNWGQGTLVTVSS
VL: B1 VL with D1Q, I2S, V10A, A13T, T77S
B18: MOR10222 (antibody, human IgG1, lambda, L234A L235A, V domains shown)
VH: B1 VH with T30N
VL: B1 VL with D1Q, I2S, V10A, A13T, T77S

Target: T1, Native human IL-18 (human, UniProt Q14116 37-193)
T1 sequence: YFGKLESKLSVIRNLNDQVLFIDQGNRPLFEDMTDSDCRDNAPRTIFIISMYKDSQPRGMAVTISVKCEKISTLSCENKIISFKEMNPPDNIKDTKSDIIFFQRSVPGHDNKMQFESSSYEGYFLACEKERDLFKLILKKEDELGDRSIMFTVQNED
Assay: cell-based or functional assay

Row | Binder | IC50, inhibition of IFN-γ release, PBMC, Native IL-18 (LPS/IL-12)
1 | B1 | 0.19 nM
2 | B2 | 0.11 nM
3 | B3 | 0.1 nM
4 | B4 | 0.04 nM
5 | B5 | 0.13 nM
6 | B6 | 0.09 nM
7 | B7 | 0.05 nM
8 | B8 | 0.03 nM
9 | B9 | 0.07 nM
10 | B10 | 0.05 nM
11 | B11 | 0.11 nM
12 | B12 | 0.11 nM
13 | B13 | 0.03 nM

Target: T2, Recombinant human IL-18 (human, UniProt Q14116 37-193)
T2 sequence: T1 sequence
Assay: cell-based or functional assay

Row | Binder | IC50, inhibition of IFN-γ release, KG-1 cells, Hu IL-18 (1 nM)
14 | B1 | 0.31 nM
15 | B2 | 0.29 nM
16 | B3 | 0.23 nM
17 | B4 | 0.47 nM
18 | B5 | 0.49 nM
19 | B6 | 4.8 nM
20 | B7 | 3.3 nM
21 | B8 | 0.23 nM
22 | B9 | 0.22 nM
23 | B10 | 0.23 nM
24 | B11 | 0.32 nM
25 | B12 | 0.54 nM
26 | B13 | 5.2 nM

Target: T3, Recombinant cynomolgus IL-18 (cynomolgus monkey, UniProt Q14116 37-193 (human entry))
T3 chain: T1 sequence with V11I, S50N, T63A, K79R, F134Y, E141K
Assay: cell-based or functional assay

Row | Binder | IC50, inhibition of IFN-γ release, KG-1 cells, Cyno IL-18 | IC50, inhibition of IFN-γ release, KG-1 cells, Cyno IL-18 (0.2 nM)
27 | B14 | 0.4 nM | 
28 | B15 |  | 2.9 nM
29 | B16 |  | 2.8 nM
30 | B17 | 9.8 nM | 
31 | B18 | 6.6 nM | 

Target: T1, Native human IL-18
Assay: cell-based or functional assay
Remark: another data set of the same source

Row | Binder | IC50, inhibition of IFN-γ release, PBMC, Native IL-18 (LPS/IL-12)
32 | B14 | 0.17 nM
33 | B15 | 0.5 nM
34 | B16 | 0.5 nM
35 | B17 | 0.3 nM
36 | B18 | 0.22 nM

Target: T2, Recombinant human IL-18
Assay: cell-based or functional assay
Remark: another data set of the same source

Row | Binder | IC50, inhibition of IFN-γ release, KG-1 cells, Hu IL-18 (1 nM) | IC50, inhibition of IFN-γ release, PBMC, Hu IL-18 (recombinant) | IC50, inhibition of IFN-γ release, KG-1 cells, Hu IL-18 (0.5 nM)
37 | B14 | 0.3 nM | 1 nM | 
38 | B15 |  |  | 0.11 nM
39 | B16 |  |  | 0.12 nM
40 | B17 | 0.8 nM | 1.9 nM | 
41 | B18 | 0.7 nM | 2.3 nM | 

Target: T1, Native human IL-18
Assay: cell-based or functional assay
Remark: another data set of the same source

Row | Binder | IC50, inhibition of IFN-γ release, human whole blood, LPS/IL-12 (native IL-18)
42 | B14 | 12.1 nM
43 | B15 | 21.5 nM
44 | B16 | 8.3 nM
45 | B17 | 16.7 nM
46 | B1 | 20.8 nM
47 | B2 | 19.6 nM
48 | B3 | 23 nM
49 | B4 | 11 nM
50 | B5 | 19.2 nM
51 | B18 | 21.6 nM
52 | B6 | 18.8 nM
53 | B7 | 16.9 nM
54 | B8 | 17.9 nM
55 | B9 | 13.4 nM
56 | B10 | 15.5 nM
57 | B11 | 13.2 nM
58 | B12 | 15.1 nM
59 | B13 | 16.1 nM

Target: T2, Recombinant human IL-18
Assay: cell-based or functional assay
Remark: another data set of the same source

Row | Binder | IC50, inhibition of IFN-γ release, human whole blood, recombinant human IL-18 (7 nM)
60 | B14 | 5.7 nM
61 | B15 | 6.6 nM
62 | B16 | 3.5 nM
63 | B17 | 5.6 nM
64 | B1 | 12.5 nM
65 | B2 | 12.7 nM
66 | B3 | 11.9 nM
67 | B4 | 10.1 nM
68 | B5 | 12.9 nM
69 | B18 | 4.7 nM
70 | B6 | 34.3 nM
71 | B7 | 58.4 nM
72 | B8 | 12.4 nM
73 | B9 | 8.1 nM
74 | B10 | 9.85 nM
75 | B11 | 11.4 nM
76 | B12 | 25.1 nM
77 | B13 | 46.5 nM
